According to patent US20220356228A1 (ICAHN SCHOOL OF MEDICINE AT MOUNT SINAI, published 2022):
Where a chain is given by its changes, count along the chain named.

B1: 8A7 (antibody, V domains shown)
VH: QVQLQESGPGLVKPSETLSLTCTVSGGSISSNYWNWIRQPPGKGLEWIGYIYYSGSTNYNPSLKSRVTISVDTSKNQFSLKLSSVTAADTAVYYCARRGFEQQLSYYYYYGLDVWGQGTTVTVSS
VL: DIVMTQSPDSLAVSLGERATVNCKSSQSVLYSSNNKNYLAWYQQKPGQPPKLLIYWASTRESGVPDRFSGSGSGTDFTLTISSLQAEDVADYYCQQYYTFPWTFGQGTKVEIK
B2: 1H10 (antibody, V domains shown)
VH: EVQLLESGGGLVQPGGSLRLSCAASGFTLSTYAMSWVRQAPGKGLEWVSAISGTGLSTYYADSLKGRFTISRDISKNTLYLQMSSLKAEDTAVYYCAKGLELFYFYYGMDVWGQGTTVTVSS
VL: EIVLTQSPGTLSLSPGERATLSCRASQSVSSTYLAWYQQKPGQAPRLLIYGTSSRATGIPDRFSGSGSGTDFTLTISRLEPEDLAVYYCQQYGRSLIFGQGTRLEIK
B3: 2A6 (antibody, V domains shown)
VH: QVQLQQWGAGLLKPSETLSLTCAVYGGSFSGYYWSWIRQPPGKGLEWIGDINHGGSTNYNPSLKSRVIISVDTSKNQFSLKLSSVTAADTALYYCARGWGGQVAHWFDPWGQGTLGTVSS
VL: DIVMTQSPDSLALSLGERATINCKSSQSVLFSSNNQNYLAWYQQKPGQPPKLLIYWASTRESGVPDRFSGSGSGTDFTLTVSSLQAEDVAVYFCQQYYSLPYTFGQGTKLEIK
B4: 4D11 (antibody, V domains shown)
VH: QVQLVESGGGLVKPGGSLRLSCAGSGFTFSDHYMSWIRQAPGKGLEWVSYISTSGRTIYYADSVKGRFTISRDNAKNSLYLQMNSLRAEDTAVYYCASDYYDNSGWYYWGQGTLVTVSS
VL: not shown
B5: 1G8 (antibody, V domains shown)
VH: B4 VH with G24A, H32F, K43M, T53F, T57A, K65R, R87S, S104V, Y107D, Q111P
VL: not shown
B6: 1H1 (antibody, V domains shown)
VH: B4 VH with G24A, H32F, K43M, T53F, T57A, K65R, R87S, S104V, Y107D, Q111P
VL: not shown
B7: 4E2 (antibody, V domains shown)
VH: B4 VH with G24A, H32F, K43M, T53F, T57A, K65R, R87S, S104V, Y107D, Q111P
VL: not shown

Columns and labels:
[1] = target: T1, JCV major capsid protein VP1, wild type (John Cunningham virus (JCV), UniProt P03089 1-354); experiment: ELISA, plates coated with pseudovirus, purified antibody
T1 construct: also called WT VP1; wild type VP1

[2] = target: T1, JCV major capsid protein VP1, wild type; experiment: cell-based or functional assay
JCV VP1 mutant S269F [3] = target: T2, JCV VP1 mutant S269F (John Cunningham virus (JCV), UniProt P03089 1-354); experiment: cell-based or functional assay
JCV VP1 mutant S269F [4] = target: T2, JCV VP1 mutant S269F; experiment: ELISA, plates coated with pseudovirus, purified antibody
JCV VP1 mutant L55F [5] = target: T3, JCV VP1 mutant L55F (John Cunningham virus (JCV), UniProt P03089 1-354); experiment: as above
T3 construct: also called VP1 L55F; 55m VP1

JCV VP1 mutant L55F [6] = target: T3, JCV VP1 mutant L55F; experiment: cell-based or functional assay

Row | Binder | EC50 [1] | Neutralization of wild type JCV, EC50 [pM] [2] | Neutralization of JCV S269F: EC50 [pM] (JCV VP1 mutant S269F [3]) | AB conc. (lowest concentration of antibody that gave a clear signal above background) [1] | AB conc. (lowest concentration of antibody that gave a clear signal above background) (JCV VP1 mutant S269F [4]) | EC50 (JCV VP1 mutant S269F [4]) | binding result (JCV VP1 mutant L55F [5]) | Neutralization of JCV L55F: EC50 [pM] (JCV VP1 mutant L55F [6]) | AB conc. (lowest concentration of antibody that gave a clear signal above background) (JCV VP1 mutant L55F [5]) | EC50 (JCV VP1 mutant L55F [5])
1 | B1 | 8.5 ng/mL |  |  |  |  |  |  |  |  | 
2 | B2 | 19.3 ng/mL | 155 pM | 20.9 pM | < 22 ng/mL | < 7.4 ng/mL | 18.5 ng/mL |  |  |  | 
3 | B3 | 1300 ng/mL | 2710 pM |  | < 200 ng/mL | < 22 ng/mL | 147 ng/mL | no binding (tested: 2.5 ng/ml to 200 ng/ml) |  |  | 
4 | B4 | 1.9 ng/mL | 124 pM | 12.7 pM | < 2.5 ng/mL | < 2.5 ng/mL | 6.9 ng/mL |  | 245 pM | < 2.5 ng/mL | 0.0077 µg/mL
5 | B5 | 7 ng/mL | 144 pM | 22.7 pM | < 2.5 ng/mL | < 2.5 ng/mL | 7.7 ng/mL |  | 511 pM | < 2.5 ng/mL | 0.0167 µg/mL
6 | B6 | 6.5 ng/mL | 182 pM | 55.3 pM | < 2.5 ng/mL | < 2.5 ng/mL | 7.5 ng/mL |  |  | < 2.5 ng/mL | 0.0147 µg/mL
7 | B7 | 11.7 ng/mL | 160 pM | 30 pM | < 7.4 ng/mL | < 2.5 ng/mL | 7.1 ng/mL |  |  | < 2.5 ng/mL | 0.0132 µg/mL
